Assay results published in patent publication US20100137208A1, “INTRATUMORALLY ADMINISTERED LACTOFERRIN IN THE TREATMENT OF MALIGNANTNEOPLASMS AND OTHER HYPERPROLIFERATIVE DISEASES” (priority 2002, published 2010).
Several values for one entry are separate records, joined by “and”; a condition that tells them apart may be missing. Equal entries are not always repeated. Marks after values point to notes of the source that are not given here.

Key:
[1] = tested on: GM-CSF; experiment: GM-CSF production in small intestine after oral rhLF (ELISA); format: in vivo, mice; conditions: oral 300 mg/kg/day for three days
Description: Recombinant human lactoferrin or placebo were orally administered to mice, and the production of GM-CSF in the small intestine was measured.
Mice (5 animals per group) were treated for three days daily with 300 mg/kg/day of rhLF. For a control, mice were only administered the pharmaceutical carrier. Twenty-four hours following administration of the LF or placebo for 3 days, animals were and the small intestinal tissue was removed for further analysis. Small intestinal epithelium was homogenized using a lysis buffer consisting of PBS, 1% Nonidet P-40, 0.5% sodium deoxycholate, and 0.1% sodium dodecyl sulphate containing 10 μg/ml PhenylMetheylsulfonyl fluoride. Homogenate was centrifuged at 15,000 rpm for 10 minutes and the supernatant stored at −80 C till it was tested for GM-CSF levels using an ELISA kit.

[2] = tested on: O12 human oropharyngeal squamous cell carcinoma tumor cells; experiment: Intratumoral rhLF in O12 tumors in nude mice; format: in vivo, athymic nude mice
Description: O12 human oropharyngeal squamous cell carcinoma tumor cells were injected to the right flank of athymic nude mice. Recombinant human lactoferrin and vehicle controls were dosed via intratumoral injection. Each animal was administered different concentrations of rhLF in 50 μL doses consisting of four separate injections of approximately 12.5 μL of the dose, at different directions and angles (approximately S/N/E/W) to ensure that the dose was distributed evenly throughout the tumor (fanning).
In this study, rhLF was administered directly into the tumor. Each animal was tracked daily for tumor growth by external caliper measurements of the protruding tumor.

[3] = tested on: YAC targets; experiment: NK activity ex vivo after oral rhLF (LDH release test); format: in vivo, Balb/c naïve mice; conditions: for % Cytotoxicity Final (NK activity): oral 300 mg/kg/day 3 days, spleen NK cells day 4
Description: Balb/c naïve mice were treated orally with rhLF or placebo once a day for 3 days (see Table 4).
(§1) On day 4, mice were sacrificed and spleens were collected. NK cells were separated using a magnetic bead cell sorting assay (MACS anti-NK-DX5) and counted. Cells were then tested in vitro for NK-activity against YAC targets using a lactate dehydrogenase (LDH) release test.
as §1, with “Balb/c naïve mice were treated orally with rhLF or placebo once a” for “On”, “for 3 days. One day later (day 4),” for “4,”, “spleens” for “spleens were”

B1: rhLF: recombinant human lactoferrin, a single chain metal binding glycoprotein (protein, UniProt P02788 20-710, looked up)
Lactotransferrin: GRRRSVQWCAVSQPEATKCFQWQRNMRKVRGPPVSCIKRDSPIQCIQAIAENRADAVTLDGGFIYEAGLAPYKLRPVAAEVYGTERQPRTHYYAVAVVKKGGSFQLNELQGLKSCHTGLRRTAGWNVPIGTLRPFLNWTGPPEPIEAAVARFFSASCVPGADKGQFPNLCRLCAGTGENKCAFSSQEPYFSYSGAFKCLRDGAGDVAFIRESTVFEDLSDEAERDEYELLCPDNTRKPVDKFKDCHLARVPSHAVVARSVNGKEDAIWNLLRQAQEKFGKDKSPKFQLFGSPSGQKDLLFKDSAIGFSRVPPRIDSGLYLGSGYFTAIQNLRKSEEEVAARRARVVWCAVGEQELRKCNQWSGLSEGSVTCSSASTTEDCIALVLKGEADAMSLDGGYVYTAGKCGLVPVLAENYKSQQSSDPDPNCVDRPVEGYLAVAVVRRSDTSLTWNSVKGKKSCHTAVDRTAGWNIPMGLLFNQTGSCKFDEYFSQSCAPGSDPRSNLCALCIGDEQGENKCVPNSNERYYGYTGAFRCLAENAGDVAFVKDVTVLQNTDGNNNEAWAKDLKLADFALLCLDGKRKPVTEARSCHLAMAPNHAVVSRMDKVERLKQVLLHQQAKFGRNGSDCPDKFCLFQSETKNLLFNDNTECLARLHGKTTYEKYLGPQYVAGITNLKKCSTSPLLEACEFLRK
[1]
  GM-CSF Increase over Placebo: 19.4% (p < 0.01)
[1]; 5 animals per group
  GM-CSF level, Mean (SEM): 7.74 (0.19) pg
[2]; Group A, single intratumoral dose (100-500 μg), day 11 after the administration
  reduction of rates of tumor growth versus pooled placebo: 50%
[2]; Group C, intratumoral twice daily for 8 days (25-500 μg per dose)
  reduction of rates of tumor growth versus pooled control group: 56%
[3]; 30:1 E:T ratio
  relative increase of NK activity over placebo-treated animals: 243%
[3]; E:T ratio 3.7:1, versus placebo group
  % Cytotoxicity Increased over ctrl: 0%
[3]; E:T ratio 7.5:1, versus placebo group
  % Cytotoxicity Increased over ctrl: 0%
[3]; E:T ratio 15:1, versus placebo group
  % Cytotoxicity Increased over ctrl: 1.3%
[3]; E:T ratio 30:1, versus placebo group
  % Cytotoxicity Increased over ctrl: 7** %
[3]; E:T ratio 3.7:1
  % Cytotoxicity Final (NK activity): 0%
[3]; E:T ratio 7.5:1
  % Cytotoxicity Final (NK activity): 0.44%
[3]; E:T ratio 15:1
  % Cytotoxicity Final (NK activity): 4.12%
[3]; E:T ratio 30:1, 300 mg/kg/day
  % Cytotoxicity Final (NK activity): 10% and 9.81%
